Bridge positions count the residues as written; N and C are the ends. Ends that are not written are not given here. COCH2 = acetyl group that carries the bridge
target: T1, Recombinant Human FGFR2 alpha (IIIc) Fc Chimera Protein, CF (R&D systems, 712-FR-050) (human, UniProt P21802 22-377); assay: ELISA on plate-bound FGFR2-Fc
T1 construct: bought; not shown: Fc part of the chimera
In short: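 Peptide binding scored by category from dose-response of background-corrected luminescence (FGFR-coated minus uncoated wells). Detection via anti-Myc antibody (2 h, room temperature) after 3 h peptide incubation on wells coated with 5 ng FGFR2 alpha (IIIc)-Fc.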

T1 sequence (P21802 22-377, change not shown): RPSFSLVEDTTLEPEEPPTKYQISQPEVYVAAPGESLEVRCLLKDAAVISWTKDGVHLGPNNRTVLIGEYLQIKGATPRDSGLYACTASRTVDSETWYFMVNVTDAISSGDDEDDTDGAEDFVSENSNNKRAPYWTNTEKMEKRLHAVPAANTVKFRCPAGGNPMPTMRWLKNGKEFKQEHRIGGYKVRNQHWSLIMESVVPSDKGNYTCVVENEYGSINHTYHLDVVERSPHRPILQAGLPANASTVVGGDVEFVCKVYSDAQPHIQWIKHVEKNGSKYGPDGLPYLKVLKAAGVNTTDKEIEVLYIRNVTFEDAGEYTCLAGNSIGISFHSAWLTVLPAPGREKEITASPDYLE

ELISA luminescence signal at 10 nmol/L peptide, relative to SEQ ID NO: 47 (=1) [ratio] | Binder
0.5 to 0.7 | SCIQQNYFWQYVFERYRYK(COCH2)Q (thioether 2-19 (inferred)) [cyclic peptide SEQ ID NO: 46]
≥ 0.7 | TCPQNFRDELQFTYFTQYK(COCH2)Y (thioether 2-19 (inferred)) [cyclic peptide SEQ ID NO: 45]
≥ 0.7 | QCPQNFINPVQWRYFQHYK(COCH2)N (thioether 2-19 (inferred)) [cyclic peptide SEQ ID NO: 80]
≥ 0.7 | KCPQNFINPVQWRYFQAYKN (not fully specified; thioether ring (C)-(K(acetyl))) [cyclic peptide SEQ ID NO: 66]
≥ 0.7 | KCPQNFINPVQWRYFQHYKN (thioether ring (C)-(K(acetyl))) [cyclic peptide SEQ ID NO: 47]
≥ 0.7 | KCPQNFINPVQWRYFAHYKN (not fully specified; thioether ring (C)-(K(acetyl))) [cyclic peptide SEQ ID NO: 65]
0.5 to 0.7 | KCPQNAINPVQWRYFQHYKN (thioether ring (C)-(K(acetyl))) [cyclic peptide SEQ ID NO: 57]
≥ 0.7 | NCPQNFINPVQWRYFQHYK(COCH2)N (thioether 2-19 (inferred)) [cyclic peptide SEQ ID NO: 79]
≥ 0.7 | KCPQNFINPVQWRYFQHYKA (not fully specified; thioether ring (C)-(K(acetyl))) [cyclic peptide SEQ ID NO: 67]
0.5 to 0.7 | KCPQNFIAPVQWRYFQHYKN (not fully specified; thioether ring (C)-(K(acetyl))) [cyclic peptide SEQ ID NO: 59]
≥ 0.7 | ICPQNFINPVQWRYFQHYK(COCH2)N (thioether 2-19 (inferred)) [cyclic peptide SEQ ID NO: 74]
≥ 0.7 | KCAQNFINPVQWRYFQHYKN (thioether ring (C)-(K(acetyl))) [cyclic peptide SEQ ID NO: 54]
≥ 0.7 | GCPQNFINPVQWRYFQHYK(COCH2)N (thioether 2-19 (inferred)) [cyclic peptide SEQ ID NO: 71]
≥ 0.7 | SCPQNFINPVQWRYFQHYK(COCH2)N (thioether 2-19 (inferred)) [cyclic peptide SEQ ID NO: 81]
≥ 0.7 | KCPQNFINPVQWAYFQHYKN (not fully specified; thioether ring (C)-(K(acetyl))) [cyclic peptide SEQ ID NO: 63]
≥ 0.7 | VCPQNFINPVQWRYFQHYK(COCH2)N (thioether 2-19 (inferred)) [cyclic peptide SEQ ID NO: 75]
≥ 0.7 | ACPQNFINPVQWRYFQHYK(COCH2)N (thioether 2-19 (inferred)) [cyclic peptide SEQ ID NO: 53]
≥ 0.7 | YCPQNFINPVQWRYFQHYK(COCH2)N (thioether 2-19 (inferred)) [cyclic peptide SEQ ID NO: 77]
≥ 0.7 | FCPQNFINPVQWRYFQHYK(COCH2)N (thioether 2-19 (inferred)) [cyclic peptide SEQ ID NO: 76]
0.1 to 0.5 | KCPQNFINPVQARYFQHYKN (not fully specified; thioether ring (C)-(K(acetyl))) [cyclic peptide SEQ ID NO: 62]
0.5 to 0.7 | KCPQNFANPVQWRYFQHYKN (thioether ring (C)-(K(acetyl))) [cyclic peptide SEQ ID NO: 58]
≥ 0.7 | LCPQNFINPVQWRYFQHYK(COCH2)N (thioether 2-19 (inferred)) [cyclic peptide SEQ ID NO: 73]
≥ 0.7 | WCPQNFINPVQWRYFQHYK(COCH2)N (thioether 2-19 (inferred)) [cyclic peptide SEQ ID NO: 78]
≥ 0.7 | KCPQNFINAVQWRYFQHYKN (not fully specified; thioether ring (C)-(K(acetyl))) [cyclic peptide SEQ ID NO: 60]
0.5 to 0.7 | KCPQNFINPVQWRAFQHYKN (not fully specified; thioether ring (C)-(K(acetyl))) [cyclic peptide SEQ ID NO: 64]

ELISA luminescence signal at 10 nmol/L peptide, relative to SEQ ID NO: 47 (=1) [ratio] | Binder
0.1 to 0.5 | KCPQAFINPVQWRYFQHYKN (thioether ring (C)-(K(acetyl))) [cyclic peptide SEQ ID NO: 56]
≥ 0.7 | KCPQNFINPAQWRYFQHYKN (not fully specified; thioether ring (C)-(K(acetyl))) [cyclic peptide SEQ ID NO: 61]
≥ 0.7 | PCPQNFINPVQWRYFQHYK(COCH2)N (thioether 2-19 (inferred)) [cyclic peptide SEQ ID NO: 72]
≥ 0.7 | KCPANFINPVQWRYFQHYKN (thioether ring (C)-(K(acetyl))) [cyclic peptide SEQ ID NO: 55]
0.5 to 0.7 | ACEYNYWNQVQFTFLIAFK(COCH2)R (thioether 2-19 (inferred)) [cyclic peptide SEQ ID NO: 44]
≥ 0.7 | YCEENYMDPEQYQYFIYFK(COCH2)Y (thioether 2-19) [cyclic peptide SEQ ID NO: 351]
≥ 0.7 | YCEENYLDPEQYQYFHYFK(COCH2)H (thioether 2-19) [cyclic peptide SEQ ID NO: 391]
≥ 0.7 | YCEENYLDPEQHQYFIYFK(COCH2)H (thioether 2-19) [cyclic peptide SEQ ID NO: 397]
≥ 0.7 | YCEENYLDPEQYQYFMYFK(COCH2)Y (thioether 2-19) [cyclic peptide SEQ ID NO: 358]
0.5 to 0.7 | YCHENYLDPEQYQYFHYFK(COCH2)R (thioether 2-19) [cyclic peptide SEQ ID NO: 394]
≥ 0.7 | YCEENYLMPEQYQYFIYFK(COCH2)Y (thioether 2-19) [cyclic peptide SEQ ID NO: 352]
0.1 to 0.5 | YCEENYLDPEQYQYFHYFK(COCH2)R (thioether 2-19) [cyclic peptide SEQ ID NO: 390]
0.5 to 0.7 | YCEENYLDPEQHQYFIYFK(COCH2)R (thioether 2-19) [cyclic peptide SEQ ID NO: 396]
0.1 to 0.5 | YCEENYLDPEQYQMFIYFK(COCH2)Y (thioether 2-19) [cyclic peptide SEQ ID NO: 357]
≥ 0.7 | YCEENYLDPEQYQYFIYFK(COCH2)M (thioether 2-19) [cyclic peptide SEQ ID NO: 360]
≥ 0.7 | YCHENYLDPEQYQYFHYFK(COCH2)H (thioether 2-19) [cyclic peptide SEQ ID NO: 395]
≥ 0.7 | YCEENYLDPEQYQYFIMFK(COCH2)Y (thioether 2-19) [cyclic peptide SEQ ID NO: 359]
≥ 0.7 | YCEENYLDMEQYQYFIYFK(COCH2)Y (thioether 2-19) [cyclic peptide SEQ ID NO: 353]
0.1 to 0.5 | YCEENYLDPEQMQYFIYFK(COCH2)Y (thioether 2-19) [cyclic peptide SEQ ID NO: 355]
0.5 to 0.7 | YCHENYLDPEQHQYFIYFK(COCH2)R (thioether 2-19) [cyclic peptide SEQ ID NO: 398]
≥ 0.7 | YCHENYLDPEQYQYFHYFK(COCH2)Y (thioether 2-19) [cyclic peptide SEQ ID NO: 392]
≥ 0.7 | YCEENYLDPMQYQYFIYFK(COCH2)Y (thioether 2-19) [cyclic peptide SEQ ID NO: 354]
≥ 0.7 | YCEENYLDPEQYMYFIYFK(COCH2)Y (thioether 2-19) [cyclic peptide SEQ ID NO: 356]
0.1 to 0.5 | YCHENYLDPEQHQYFHYFK(COCH2)Y (thioether 2-19) [cyclic peptide SEQ ID NO: 393]
